Test results from US20220048967A1 (published 2022).
Numbered stars: 1 amine (or outer) side, 2 acyl side, 3 side chain; on linkers, the order of the positions; unused ones are H or OH. Square brackets hold non-standard residues; d marks the D form. Side chains are listed from the residue outwards. Ends that are not written are not given here. * marks the point of attachment. C20 diacid = O=C(O)CCCCCCCCCCCCCCCCCCC(=O)*; γGlu = O=C(O)[C@H](CCC(=O)[*:2])N[*:1]; AEEA = NCCOCCOCC(=O)O; Aib = CC(C)(N)C(=O)O

T1: human GIP receptor (human, UniProt P48546 22-466)
T1 sequence (looked up): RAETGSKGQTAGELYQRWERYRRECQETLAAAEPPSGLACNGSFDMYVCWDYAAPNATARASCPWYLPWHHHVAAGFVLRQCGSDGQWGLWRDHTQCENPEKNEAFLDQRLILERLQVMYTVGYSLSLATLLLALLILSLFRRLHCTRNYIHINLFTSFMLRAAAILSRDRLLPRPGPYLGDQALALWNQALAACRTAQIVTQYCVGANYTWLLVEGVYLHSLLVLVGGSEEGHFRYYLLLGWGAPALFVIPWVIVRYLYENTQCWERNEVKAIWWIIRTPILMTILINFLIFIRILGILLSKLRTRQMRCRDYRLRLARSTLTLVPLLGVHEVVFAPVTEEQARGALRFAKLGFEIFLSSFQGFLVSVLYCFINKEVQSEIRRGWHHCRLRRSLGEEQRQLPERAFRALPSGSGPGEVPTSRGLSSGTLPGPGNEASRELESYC

B1: Example 57 (peptide)
peptide: YXEGTXTSDYSILLDKKAQXAFIEYLIEGGPSSGAPPPS
modifications: Aib2; αMeF6; K17((2-[2-(2-Amino-ethoxy)-ethoxy]-acetyl)2-(γ-Glu)-CO-(CH2)18-CO2H); Aib20; C-terminal NH2
B2: Example 68 (peptide)
peptide: YXEGTFTSDYXILLDKKAQXAFIEYLIEGGPSSGAPPPS
modifications: Aib2; αMeS11; K17((2-[2-(2-Amino-ethoxy)-ethoxy]-acetyl)2-(γ-Glu)-CO-(CH2)18-CO2H); Aib20; C-terminal NH2
B3: Example 67 (peptide)
peptide: YXEGTFTSDYSILLDKKAQXAXIEYLIEGGPSSGAPPPS
modifications: Aib2; K17((2-[2-(2-Amino-ethoxy)-ethoxy]-acetyl)2-(γ-Glu)-CO-(CH2)18-CO2H); Aib20; αMeF22; C-terminal NH2
B4: Example 66 (peptide)
peptide: YXEGTFTSDYSIXLDEKAQXAFIEYLLEGGPSSGAPPPS
modifications: not fully specified; Aib2; αMeF13 as printed (likely αMeL13); K17((2-[2-(2-Amino-ethoxy)-ethoxy]-acetyl)2-(γ-Glu)-CO-(CH2)18-CO2H); Aib20; C-terminal NH2
B5: Example 69 (peptide)
peptide: YXEGTXTSDYSIXLDKKAQXAFIEYLIEGGPSSGAPPPS
modifications: not fully specified; Aib2; αMeF6; αMeF13 as printed (likely αMeL13); K17((2-[2-(2-Amino-ethoxy)-ethoxy]-acetyl)2-(γ-Glu)-CO-(CH2)18-CO2H); Aib20; C-terminal NH2
B6: Example 58 (peptide)
peptide: Y[Aib]EGTFTSDYSSLLDKK([AEEA-AEEA-γGlu-C20 diacid])AQ[Aib]AFIEYLIEGGPSSGAPPPS-NH2
modifications: N-terminus assumed
SMILES: CC[C@H](C)[C@H](NC(=O)[C@H](CC(C)C)NC(=O)[C@H](Cc1ccc(O)cc1)NC(=O)[C@H](CCC(=O)O)NC(=O)[C@@H](NC(=O)[C@H](Cc1ccccc1)NC(=O)[C@H](C)NC(=O)C(C)(C)NC(=O)[C@H](CCC(N)=O)NC(=O)[C@H](C)NC(=O)[C@H](CCCCNC(=O)COCCOCCNC(=O)COCCOCCNC(=O)CC[C@H](NC(=O)CCCCCCCCCCCCCCCCCCC(=O)O)C(=O)O)NC(=O)[C@H](CCCCN)NC(=O)[C@H](CC(=O)O)NC(=O)[C@H](CC(C)C)NC(=O)[C@H](CC(C)C)NC(=O)[C@H](CO)NC(=O)[C@H](CO)NC(=O)[C@H](Cc1ccc(O)cc1)NC(=O)[C@H](CC(=O)O)NC(=O)[C@H](CO)NC(=O)[C@@H](NC(=O)[C@H](Cc1ccccc1)NC(=O)[C@@H](NC(=O)CNC(=O)[C@H](CCC(=O)O)NC(=O)C(C)(C)NC(=O)[C@@H](N)Cc1ccc(O)cc1)[C@@H](C)O)[C@@H](C)O)[C@@H](C)CC)C(=O)N[C@@H](CCC(=O)O)C(=O)NCC(=O)NCC(=O)N1CCC[C@H]1C(=O)N[C@@H](CO)C(=O)N[C@@H](CO)C(=O)NCC(=O)N[C@@H](C)C(=O)N1CCC[C@H]1C(=O)N1CCC[C@H]1C(=O)N1CCC[C@H]1C(=O)N[C@@H](CO)C(N)=O
B7: Example 51 (peptide)
peptide: Y[Aib]EGTFTSDYSILLDKK([AEEA-AEEA-γGlu-C20 diacid])AQ[Aib]AFIEYLIEGG-NH2
modifications: N-terminus assumed
SMILES: CC[C@H](C)[C@H](NC(=O)[C@H](CC(C)C)NC(=O)[C@H](Cc1ccc(O)cc1)NC(=O)[C@H](CCC(=O)O)NC(=O)[C@@H](NC(=O)[C@H](Cc1ccccc1)NC(=O)[C@H](C)NC(=O)C(C)(C)NC(=O)[C@H](CCC(N)=O)NC(=O)[C@H](C)NC(=O)[C@H](CCCCNC(=O)COCCOCCNC(=O)COCCOCCNC(=O)CC[C@H](NC(=O)CCCCCCCCCCCCCCCCCCC(=O)O)C(=O)O)NC(=O)[C@H](CCCCN)NC(=O)[C@H](CC(=O)O)NC(=O)[C@H](CC(C)C)NC(=O)[C@H](CC(C)C)NC(=O)[C@@H](NC(=O)[C@H](CO)NC(=O)[C@H](Cc1ccc(O)cc1)NC(=O)[C@H](CC(=O)O)NC(=O)[C@H](CO)NC(=O)[C@@H](NC(=O)[C@H](Cc1ccccc1)NC(=O)[C@@H](NC(=O)CNC(=O)[C@H](CCC(=O)O)NC(=O)C(C)(C)NC(=O)[C@@H](N)Cc1ccc(O)cc1)[C@@H](C)O)[C@@H](C)O)[C@@H](C)CC)[C@@H](C)CC)C(=O)N[C@@H](CCC(=O)O)C(=O)NCC(=O)NCC(N)=O
B8: Example 72 (peptide)
peptide: Y[Aib]EGTFTSDYSILLDKIAQ[Aib]K([AEEA-AEEA-γGlu-C20 diacid])FIEYLIEGG-NH2
modifications: N-terminus assumed
SMILES: CC[C@H](C)[C@H](NC(=O)[C@H](CCCCN)NC(=O)[C@H](CC(=O)O)NC(=O)[C@H](CC(C)C)NC(=O)[C@H](CC(C)C)NC(=O)[C@@H](NC(=O)[C@H](CO)NC(=O)[C@H](Cc1ccc(O)cc1)NC(=O)[C@H](CC(=O)O)NC(=O)[C@H](CO)NC(=O)[C@@H](NC(=O)[C@H](Cc1ccccc1)NC(=O)[C@@H](NC(=O)CNC(=O)[C@H](CCC(=O)O)NC(=O)C(C)(C)NC(=O)[C@@H](N)Cc1ccc(O)cc1)[C@@H](C)O)[C@@H](C)O)[C@@H](C)CC)C(=O)N[C@@H](C)C(=O)N[C@@H](CCC(N)=O)C(=O)NC(C)(C)C(=O)N[C@@H](CCCCNC(=O)COCCOCCNC(=O)COCCOCCNC(=O)CC[C@H](NC(=O)CCCCCCCCCCCCCCCCCCC(=O)O)C(=O)O)C(=O)N[C@@H](Cc1ccccc1)C(=O)N[C@H](C(=O)N[C@@H](CCC(=O)O)C(=O)N[C@@H](Cc1ccc(O)cc1)C(=O)N[C@@H](CC(C)C)C(=O)N[C@H](C(=O)N[C@@H](CCC(=O)O)C(=O)NCC(=O)NCC(N)=O)[C@@H](C)CC)[C@@H](C)CC
B9: Example 70 (peptide)
peptide: Y[Aib]EGTFTSDK([AEEA-AEEA-γGlu-C20 diacid])SILLDKIAQ[Aib]AFIEYLIEGG-NH2
modifications: N-terminus assumed
SMILES: CC[C@H](C)[C@H](NC(=O)[C@H](CCCCN)NC(=O)[C@H](CC(=O)O)NC(=O)[C@H](CC(C)C)NC(=O)[C@H](CC(C)C)NC(=O)[C@@H](NC(=O)[C@H](CO)NC(=O)[C@H](CCCCNC(=O)COCCOCCNC(=O)COCCOCCNC(=O)CC[C@H](NC(=O)CCCCCCCCCCCCCCCCCCC(=O)O)C(=O)O)NC(=O)[C@H](CC(=O)O)NC(=O)[C@H](CO)NC(=O)[C@@H](NC(=O)[C@H](Cc1ccccc1)NC(=O)[C@@H](NC(=O)CNC(=O)[C@H](CCC(=O)O)NC(=O)C(C)(C)NC(=O)[C@@H](N)Cc1ccc(O)cc1)[C@@H](C)O)[C@@H](C)O)[C@@H](C)CC)C(=O)N[C@@H](C)C(=O)N[C@@H](CCC(N)=O)C(=O)NC(C)(C)C(=O)N[C@@H](C)C(=O)N[C@@H](Cc1ccccc1)C(=O)N[C@H](C(=O)N[C@@H](CCC(=O)O)C(=O)N[C@@H](Cc1ccc(O)cc1)C(=O)N[C@@H](CC(C)C)C(=O)N[C@H](C(=O)N[C@@H](CCC(=O)O)C(=O)NCC(=O)NCC(N)=O)[C@@H](C)CC)[C@@H](C)CC
B10: Example 71 (peptide)
peptide: Y[Aib]EGTFTSDYSILK([AEEA-AEEA-γGlu-C20 diacid])DKIAQ[Aib]AFIEYLIEGG-NH2
modifications: N-terminus assumed
SMILES: CC[C@H](C)[C@H](NC(=O)[C@H](CCCCN)NC(=O)[C@H](CC(=O)O)NC(=O)[C@H](CCCCNC(=O)COCCOCCNC(=O)COCCOCCNC(=O)CC[C@H](NC(=O)CCCCCCCCCCCCCCCCCCC(=O)O)C(=O)O)NC(=O)[C@H](CC(C)C)NC(=O)[C@@H](NC(=O)[C@H](CO)NC(=O)[C@H](Cc1ccc(O)cc1)NC(=O)[C@H](CC(=O)O)NC(=O)[C@H](CO)NC(=O)[C@@H](NC(=O)[C@H](Cc1ccccc1)NC(=O)[C@@H](NC(=O)CNC(=O)[C@H](CCC(=O)O)NC(=O)C(C)(C)NC(=O)[C@@H](N)Cc1ccc(O)cc1)[C@@H](C)O)[C@@H](C)O)[C@@H](C)CC)C(=O)N[C@@H](C)C(=O)N[C@@H](CCC(N)=O)C(=O)NC(C)(C)C(=O)N[C@@H](C)C(=O)N[C@@H](Cc1ccccc1)C(=O)N[C@H](C(=O)N[C@@H](CCC(=O)O)C(=O)N[C@@H](Cc1ccc(O)cc1)C(=O)N[C@@H](CC(C)C)C(=O)N[C@H](C(=O)N[C@@H](CCC(=O)O)C(=O)NCC(=O)NCC(N)=O)[C@@H](C)CC)[C@@H](C)CC

Columns and labels:
human GIP receptor = target: T1, human GIP receptor; test: cell-based or functional assay
human GLP-1 receptor = human GLP-1 receptor (human, UniProt P43220 24-463); test: cell-based or functional assay

| Binder | hGIPR cAMP EC50 ratio (human GIP receptor) | hGIPR cAMP Rel EC50 (human GIP receptor) [pM] | hGLP1R cAMP EC50 ratio (human GLP-1 receptor) | hGLP1R cAMP Rel EC50 (human GLP-1 receptor) [pM] |
| --- | --- | --- | --- | --- |
| B1 | 1.74 | 84.9 | 0.996 | 66.8 |
| B2 | 1.67 | 88.1 | 0.354 | 153 |
| B3 | 1.61 | 91.3 | 0.123 | 447 |
| B4 | 1.89 | 74.3 | 0.255 | 285 |
| B5 | 2.73 | 71.2 | 0.85 | 84.4 |
| B6 | 0.522 | 266 | 0.378 | 180 |
| B7 | 1.69 | 96 | 0.426 | 153 |
| B8 | 0.715 | 252 | 0.0645 | 906 |
| B9 | 0.351 | 480 | 0.207 | 283 |
| B10 | 1.02 | 166 | 0.0604 | 1020 |
